US20200317816A1 (Novartis, published 2020)

Tests used:
[1] = target: anti-FXI/FXIa antibody NOV1401; test: cell-based or functional assay
[2] = target: T1, anti-FXI/FXIa antibody NOV1401; test: SPR (ProteOn XPR36), NOV1401 amine-coupled on the chip, Fab as analyte 0.125-4 nM, Langmuir 1:1 fit, 25 C; n=1
T1 construct: It was amine-coupled to the chip in SPR; In SET it was titrated in solution, and biotinylated NOV1401 served only as the capture reagent on the plate
Method: SPR binding experiments were performed on a ProteOn XPR36 instrument (Bio-Rad Laboratories, Inc.) in PBS/T buffer (50 mM phosphate, 150 mM NaCl, pH 7.4, 0.005% v/v Tween-20) at 25° C. […] Unreacted groups were blocked by injecting 1 M ethanolamine.
Blank surfaces were used for background corrections. There was no need to regenerate surfaces since the ProteOn protein interaction array system allows to run up to six binding experiments on an identical surface in parallel.
Data processing and analysis including kon, koff, and KD determination were performed with the ProteOn Manager™ software version 3.1.0.6. Sensorgrams were fitted by applying a Langmuir 1:1 binding model (Rmax set at global) and dissociation constants were calculated from kon and koff.

[3] = target: T1, anti-FXI/FXIa antibody NOV1401; test: cell-based or functional assay; remark: listed apart in the source
[4] = target: T1, anti-FXI/FXIa antibody NOV1401; test: solution equilibrium titration (SET), constant Fab with NOV1401 titrated in solution, free Fab captured on biotinylated NOV1401, 1:1 fit; average of n=3
Method: After washing the plate again three times, 30 μl of detection reagent (LumiGLO Peroxidase Chemiluminescent Substrate, KPL#54-61-01) was added to each well. Electrochemiluminescence (ECL) signals were generated and detected immediately with a luminescence imager (SpectraMax M5, Molecular Devices, LLC).
Average ECL-signals were calculated from duplicate measurements within each assay. Data were baseline adjusted by subtracting the lowest value from all data points and plotted against the corresponding antigen concentration.

T1 sequence (VH, as listed by the source, chain 1 of 2): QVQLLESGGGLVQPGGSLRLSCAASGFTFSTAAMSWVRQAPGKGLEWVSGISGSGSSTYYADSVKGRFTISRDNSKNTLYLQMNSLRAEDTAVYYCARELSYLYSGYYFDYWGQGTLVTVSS
T1 sequence (VL, as listed by the source, chain 2 of 2): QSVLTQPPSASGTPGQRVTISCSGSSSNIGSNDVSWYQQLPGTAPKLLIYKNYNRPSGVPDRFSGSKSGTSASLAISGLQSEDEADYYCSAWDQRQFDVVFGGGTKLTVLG

percentage reversal of the NOV1401 effect on thrombin generation (TGA), NOV1401/anti NOV1401 ratio 1/1 (n/n) [1]: 55% | percentage reversal of the NOV1401 effect on thrombin generation (TGA), NOV1401/anti NOV1401 ratio 1/3 (n/n) [1]: 57% | percentage reversal of the NOV1401 effect on thrombin generation (TGA), NOV1401/anti NOV1401 ratio 1/10 (n/n) [1]: 61% | Kd [2]: 0.23 nM | percentage reversal of NOV1401 aPTT prolongation, NOV1401/anti NOV1401 ratio 1/1 (n/n) [3]: 21% | percentage reversal of NOV1401 aPTT prolongation, NOV1401/anti NOV1401 ratio 1/3 (n/n) [3]: 42% | percentage reversal of NOV1401 aPTT prolongation, NOV1401/anti NOV1401 ratio 1/10 (n/n) [3]: 55% | Kd [4]: 0.1 nM
B1: IDT2 anti-NOV1401 Fab (Fab, V domains shown)
VH: QVQLVESGGGLVKPGGSLRLSCAASGFTFSSAAVHWVRQAPGKGLEWVGRIKSKADGGTTDYAAPVKGRFTISRDDSKNTLYLQMNSLKTEDTAVYYCARDSPSISSYSIPYFSGMDVWGQGTLVTVSS
VL: DIQMTQSPSSLSASVGDRVTITCRASQGIRAWLNWYQQKPGKAPKLLIYAASSLQSGVPSRFSGSGSGTDFTLTISSLQPEDFATYYCHQYITHPPTFGQGTKVEIKR
notes: Human Fab; The heavy chain entry is VH-CH1 (Fd); also called antidote
